Columns and labels:
[1] = biological target: Ankyrin2, large isoform (Ank2-L) (Drosophila (endogenous in larval brain))
[2] = biological target: Ank2-S–EGFP (short isoform of Ank2 containing all potential Nrg interacting domains) (Drosophila); test: co-IP; S2 cells co-transfected with act5C–Gal4, UAS–Ank2-S–EGFP and UAS–Nrg–3xHA; IP of Nrg180-HA proteins using Ank2-S–GFP; blots with anti-HA and anti-GFP; four independent IPs quantified (Odyssey2.1)
[3] = biological target: Ankyrin2, large isoform (Ank2-L) (Drosophila (endogenous in larval brain)); remark: listed apart in the source

With “Nrg180-HA Y-F (tyrosine of the FIGQY motif replaced with phenylalanine) (from UniProt P20241-1 24-1302) (natural protein)” the FRAP of GFP-tagged Nrg180^Y-F in motoneurons in vivo (ok371–Gal4): mobility against wild type (fold against wild type) [1] was over 1.5 and the decrease in binding capacities compared to wild-type [2] was 30%.

For “Nrg180-HA Y-D (tyrosine of the FIGQY motif replaced with aspartate) (from UniProt P20241-1 24-1302) (natural protein)”, the FRAP of GFP-tagged Nrg180^Y-D in motoneurons in vivo (ok371–Gal4): mobility against wild type (fold against wild type) [1] was over 1.5 and the decrease in binding capacities compared to wild-type [2] was 70%.

In the case of “Nrg180-HA Y-A (tyrosine of the FIGQY motif replaced with alanine) (from UniProt P20241-1 24-1302) (natural protein)”, the FRAP of GFP-tagged Nrg180^Y-A in motoneurons in vivo (ok371–Gal4): mobility against wild type (fold against wild type) [1] is reported as over 1.5 and the decrease in binding capacities compared to wild-type [2] is reported as 90%.

With “Nrg180-HA ΔFIGQY (entire FIGQY motif deleted) (from UniProt P20241-1 24-1302) (natural protein)” the FRAP of GFP-tagged Nrg180^ΔFIGQY in motoneurons in vivo (ok371–Gal4): mobile fraction [3] was 80%.

B1: Nrg180-HA, wild type (UAS–Nrg–3xHA) (natural protein)
chain: KGNRPPRITKQPAPGELLFKVAQQNKESDNPFIIECEADGQPEPEYSWIKNGKKFDWQAYDNRMLRQPGRGTLVITIPKDEDRGHYQCFASNEFGTATSNSVYVRKAELNAFKDEAAKTLEAVEGEPFMLKCAAPDGFPSPTVNWMIQESIDGSIKSINNSRMTLDPEGNLWFSNVTREDASSDFYYACSATSVFRSEYKIGNKVLLDVKQMGVSASQNKHPPVRQYVSRRQSLALRGKRMELFCIYGGTPLPQTVWSKDGQRIQWSDRITQGHYGKSLVIRQTNFDDAGTYTCDVSNGVGNAQSFSIILNVNSVPYFTKEPEIATAAEDEEVVFECRAAGVPEPKISWIHNGKPIEQSTPNPRRTVTDNTIRIINLVKGDTGNYGCNATNSLGYVYKDVYLNVQAEPPTISEAPAAVSTVDGRNVTIKCRVNGSPKPLVKWLRASNWLTGGRYNVQANGDLEIQDVTFSDAGKYTCYAQNKFGEIQADGSLVVKEHTRITQEPQNYEVAAGQSATFRCNEAHDDTLEIEIDWWKDGQSIDFEAQPRFVKTNDNSLTIAKTMELDSGEYTCVARTRLDEATARANLIVQDVPNAPKLTGITCQADKAEIHWEQQGDNRSPILHYTIQFNTSFTPASWDAAYEKVPNTDSSFVVQMSPWANYTFRVIAFNKIGASPPSAHSDSCTTQPDVPFKNPDNVVGQGTEPNNLVISWTPMPEIEHNAPNFHYYVSWKRDIPAAAWENNNIFDWRQNNIVIADQPTFVKYLIKVVAINDRGESNVAAEEVVGYSGEDRPLDAPTNFTMRQITSSTSGYMAWTPVSEESVRGHFKGYKIQTWTENEGEEGLREIHVKGDTHNALVTQFKPDSKNYARILAYNGRFNGPPSAVIDFDTPEGVPSPVQGLDAYPLGSSAFMLHWKKPLYPNGKLTGYKIYYEEVKESYVGERREYDPHITDPRVTRMKMAGLKPNSKYRISITATTKMGEGSEHYIEKTTLKDAVNVAPATPSFSWEQLPSDNGLAKFRINWLPSTEGHPGTHFFTMHRIKGETQWIRENEEKNSDYQEVGGLDPETAYEFRVVSVDGHFNTESATQEIDTNTVEGPIMVANETVANAGWFIGMMLALAFIIILFIIICIIRRNRGGKYDVHDRELANGRRDYPEEGGFHEYSQPLDNKSAGRQSVSSANKPGVESDTDSMAEYGDGDTGQFTEDGSFIGQYVPGKLQPPVSPQPLNNSAAAHQAAPTAGGSGAAGSAAAAGASGGASSAGGAAASNGGAAAGAVATYV
For B1, the FRAP of GFP-tagged Nrg180 in motoneurons in vivo (ok371–Gal4): mobile fraction (% of total protein) [3] was 40.
